# In US20150118260A1 (GENERAL HOSPITAL, published 2015):
# Substitutions are numbered along the chain they refer to. Names may count otherwise.
# B1: glycosylated soluble porcine CTLA-4 carrying 6xHis tag in the C-terminus (aa 38-161, 124 aa + 6xHis) (receptor)
# chain: MHVAQPAVVLANSRGVASFVCEYGSAGKAAEVRVTVLRRAGSQMTEVCAATYTVEDELTFLDDSTCTGTSTENKVNLTIQGLRAVDTGLYICKVELLYPPPYYVGMGNGTQIYVIDPEPCPDSDHHHHHH
# modifications: N-glycosylated completely or partially (Pichia pastoris); labeled with Sulfo-NHS biotin in the direct binding and KD assays, non-biotinylated in the blocking assay
# notes: Expressed in Pichia pastoris X33; The entry includes the 6xHis tag; also called pCTLA-4-Gly; pCTLA4-6xHis
# B2: non-N-glycosylated soluble porcine CTLA-4 carrying 6xHis tag (aa 38-161, 124 aa + 6xHis; N76A, N108A) (receptor)
# chain: B1 chain with N76A, N108A
# modifications: labeled with Sulfo-NHS biotin in the direct binding and KD assays, non-biotinylated in the blocking assay
# notes: also called pCTLA-4-Non-N-Gly; non-N-glycosylated porcine soluble CTLA-4
# Key:
# [1] = biological target: T1, porcine CD80 on the porcine CD80-expressing B-cell lymphoma cell line LCL13271-5E4 (porcine); assay: flow cytometry on LCL13271-5E4 cells, MFI against concentration of biotinylated protein, non-linear least-squares fit
# T1 construct: whole, on cells; The cell line was picked as CD80-expressing by staining with hamster anti-mouse CD80 mAb 16-10A1; CD86 on these cells is not addressed; also called LC13271-5E4
# [2] = biological target: T2, human CD80 on the human CD80-expressing leukemia cell line THP-1 (human, UniProt P33681 35-288); assay: flow cytometry with biotinylated soluble porcine CTLA-4 on THP-1 cells
# T2 construct: whole, on cells
# T2 sequence (looked up): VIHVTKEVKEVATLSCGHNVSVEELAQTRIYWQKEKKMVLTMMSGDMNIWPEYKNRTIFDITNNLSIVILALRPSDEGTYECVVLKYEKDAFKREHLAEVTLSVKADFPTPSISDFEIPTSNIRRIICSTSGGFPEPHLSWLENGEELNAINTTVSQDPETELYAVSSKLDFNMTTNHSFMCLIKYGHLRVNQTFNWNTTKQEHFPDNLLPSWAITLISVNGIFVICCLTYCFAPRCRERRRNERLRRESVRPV
Binder,Kd [1] [nM],binding result [2]
B1,13,no binding
B2,13,no binding
